Measurements reported in article PMC6868158.
pKd: −log10 of the molar value.

Assays:
[1] = system: tTALE-eGFP (truncated TALE, 7-mer TGTCTGT repeat domain, fused to eGFP) (artificial construct (from TALEN plasmid RHD_Exon4_TALEN_L)); assay: FRET; conditions: FRET: TE pH 8.0, 100 nM dsDNA, 10-100 nM tTALE-eGFP for Kd; NaCl series 0-200 mM at 30 nM protein; excitation 488 nm, emission 631 nm; temperature not stated
[2] = system: tTALE-eGFP (truncated TALE, 7-mer TGTCTGT repeat domain, fused to eGFP) (artificial construct (from TALEN plasmid RHD_Exon4_TALEN_L)); assay: single-molecule fluorescence (surface-immobilized DNA in flow cell); conditions: FRET: TE pH 8.0, 100 nM dsDNA, 10-100 nM tTALE-eGFP for Kd; NaCl series 0-200 mM at 30 nM protein; excitation 488 nm, emission 631 nm; temperature not stated

Substance	pKd [1]	K half [2] [nM]
TGTCTGTATG (double strand) [target DNA]	7.57	–
lambda DNA	–	22
